# Laboratory results from article PMC2967368.
# Assays:
# [1] = molecular target: Histone-H3 (1-21) peptide phosphorylated at Thr-3 (UniProt P68431); experiment: fluorescence polarisation
# Survivin [2] = molecular target: Survivin (UniProt O15392); experiment: peptide pull-down, Coomassie staining; details: reference: unmodified H3 peptide; sites T3
# Survivin [3] = molecular target: Survivin (UniProt O15392); experiment: biotinylated peptide pull-down, immunoblot; details: reference: unmodified H3(1-21) peptide; sites T3
substance,measurement,setting,value
"xISD complex containing INCENP(1-58), Survivin and Dasra-A (from UniProt Q4V7H8 1-296)",fold enhancement of binding by T3ph against unmodified H3,[1],20 fold
Histone-H3 (from UniProt P68431) H3T3ph peptide,binding against the reference,Survivin [2],stronger
Histone-H3 1-21 (from UniProt P68431) H3T3ph peptide,binding against the reference,Survivin [3],stronger
